Patent US20230312754A1 (published 2023)

T1: human CEACAM5 (R&D Systems #4128-CM-050) (human, UniProt P06731 35-685)
T1 construct: Bought protein; also called hCEACAM-5; Human CEACAM5-His
T1 sequence (looked up): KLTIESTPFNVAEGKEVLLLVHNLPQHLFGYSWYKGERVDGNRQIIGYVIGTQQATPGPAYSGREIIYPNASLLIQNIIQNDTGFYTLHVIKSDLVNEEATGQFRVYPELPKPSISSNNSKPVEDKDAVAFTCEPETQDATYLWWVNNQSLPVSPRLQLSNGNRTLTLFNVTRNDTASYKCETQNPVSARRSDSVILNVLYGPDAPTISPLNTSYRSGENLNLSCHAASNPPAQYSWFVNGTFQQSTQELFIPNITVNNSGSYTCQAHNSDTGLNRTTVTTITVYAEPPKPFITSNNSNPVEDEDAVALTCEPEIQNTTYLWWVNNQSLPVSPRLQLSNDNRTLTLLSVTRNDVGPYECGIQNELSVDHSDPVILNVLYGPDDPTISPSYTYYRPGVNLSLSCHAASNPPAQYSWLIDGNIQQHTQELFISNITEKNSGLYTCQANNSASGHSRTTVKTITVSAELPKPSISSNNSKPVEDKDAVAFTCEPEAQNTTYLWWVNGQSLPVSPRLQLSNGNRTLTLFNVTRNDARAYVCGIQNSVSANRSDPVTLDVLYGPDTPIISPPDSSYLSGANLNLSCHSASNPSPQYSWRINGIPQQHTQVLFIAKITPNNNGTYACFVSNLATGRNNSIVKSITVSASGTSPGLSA


What was measured:
[1] = target: T2, biotinylated human CD40-mouse Fc (Ancell #504-030) (human, UniProt P25942 21-193, biotinylated); assay: Octet (BLI), bsAb in solution, captured CD40mFc-biotin, 1:1 fit
T2 construct: Bought protein; also called biotinylated hCD40-muIg; CD40mFc-biotin; not shown: mouse Fc (muIg) part
T2 sequence (P25942 21-193 limits assumed): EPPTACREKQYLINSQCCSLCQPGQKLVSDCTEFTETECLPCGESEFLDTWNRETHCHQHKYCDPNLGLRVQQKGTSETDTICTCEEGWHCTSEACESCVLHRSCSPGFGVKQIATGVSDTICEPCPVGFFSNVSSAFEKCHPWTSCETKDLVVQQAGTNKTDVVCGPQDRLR
Description: Kinetic measurements were performed in the Octet RED96 platform using several different setups. […] Monomeric human CD40-His-Avi tag (Acro Biosystems #CD0-H5228), monomeric Human CEACAM5-His (R&D Systems #4128-CM-050) or monomeric Cynomolgus CEACAM5-His (Sino Biological #90891-C08H) were ½ serially diluted in 1× kinetic buffer (Sartorius) starting at 500 nM or 100 nM. Bispecific antibodies were 2 serially diluted starting at 50 nM, 25 nM or 10 nM or 1/1.5 serially diluted starting at 15 nM or 5 nM. Binding kinetics was studied in 1× kinetic buffer where association was allowed for 100 sec, 300 sec or 600 sec followed by dissociation for 100 sec, 300 sec or 3600 sec. Sensor tips were regenerated with 10 mM Glycine pH 1.7. Data generated were referenced by subtracting blank or parallel buffer blank, the baseline was aligned to the y-axis, inter-step correction by alignment against dissociation was performed and the data was smoothed by Savitzky-Golay filter in the data analysis software (v9.0.0.14). The processed data was fitted using a 1:1 Langmuir binding model with R² or X² as a measurement of fitting accuracy.
TABLE 12 Summary of kinetic profiles measured in Octet. Bispecific antibodies in solution (25-0.8 nM, 10-2 or 5-0.7 nM.) interacting with captured CD40mFc-biotin. Association was measured for 300 sec or 600 sec and dissociation was measured for 300 sec or 3600 sec

[2] = target: T1, human CEACAM5 (R&D Systems #4128-CM-050); assay: dual target ELISA: coated hCEACAM-5, detection with biotinylated hCD40-muIg
Description: 96-well plates were coated with 0.5 μg/mL antigen, hCEACAM-1 (2244-CM-050, R&D Systems), hCEACAM-5 (4128-CM-050, R&D Systems), hCEACAM-6 (3934-CM-050, R&D Systems) or CEACAM-8 (9639-CM-050, R&D Systems) in PBS over night at 4° C. After washing in PBS/0.05% Tween 20 (PBST), the plates were blocked with PBST, 2% BSA for at least 30 minutes at room temperature before a second round of washing. RUBY bsAbs, diluted in PBST, 0.5% BSA, were then added and allowed to bind for at least 1 hour at room temperature. […] Finally, a final round of washing was performed and bound complexes detected using SuperSignal Pico Luminescent as substrate and luminescence signals were measured using Fluostar Optima.

Row | Kd [1] | koff [1] | kon [1] | binding result [2] | Binder
1 | 76 nM | 0.00062 s⁻¹ | 8300 M⁻¹ s⁻¹ | – | AC_05293 (bispecific antibody, V domains shown) VH 1: EVQLLESGGGLVQPGGSLRLSCAASGFTFSSYAMSWVRQAPGKGLEWVSGIGSYGGGTYYADSVKGRFTISRDNSKNTLYLQMNSLRAEDTAVYYCARYVNFGMDYWGQGTLVTVSS VL 1: DIQMTQSPSSLSASVGDRVTITCRASQSISSYLNWYQQKPGKAPKLLIYAASSLQSGVPSRFSGSGSGTDFTLTISSLQPEDFATYYCQQYGRNPPTFGQGTKLEIK VL 2: ELVMTQSPSSLTVTAGEKVTMSCKSSQSLLNSGNQKNYLTWYQQKPGQPPKLLIYWASTRESGVPDRFTGSGSGTDFTLTISSVQAEDLAVYYCQNDYSYPLTFGAGTKLEIK VH 2: EVQLLEQSGAELVRPGTSVKISCKASGYAFTNYWLGWVKQRPGHGLEWIGDIFPGSGNIHYNEKFKGKATLTADKSSSTAYMQLSSLTFEDSAVYFCARLRNWDEPMDYWGQGTTVTVSS
2 | 8.5 nM | 0.0046 s⁻¹ | 540000 M⁻¹ s⁻¹ | – | AC_05300 (bispecific antibody, V domains shown) VH 1: EVQLLEQSGAELVRPGTSVKISCKASGYAFTNYWLGWVKQRPGHGLEWIGDIFPGSGNIHYNEKFKGKATLTADKSSSTAYMQLSSLTFEDSAVYFCARLRNWDEPMDYWGQGTTVTVSS VL 1: ELVMTQSPSSLTVTAGEKVTMSCKSSQSLLNSGNQKNYLTWYQQKPGQPPKLLIYWASTRESGVPDRFTGSGSGTDFTLTISSVQAEDLAVYYCQNDYSYPLTFGAGTKLEIK VL 2: DIQMTQSPSSLSASVGDRVTITCRASQSISSYLNWYQQKPGKAPKLLIYAASSLQSGVPSRFSGSGSGTDFTLTISSLQPEDFATYYCQQYGRNPPTFGQGTKLEIK VH 2: EVQLLESGGGLVQPGGSLRLSCAASGFTFSSYAMSWVRQAPGKGLEWVSGIGSYGGGTYYADSVKGRFTISRDNSKNTLYLQMNSLRAEDTAVYYCARYVNFGMDYWGQGTLVTVSS
3 | – | – | – | binds | Multi40 (bispecific antibody, CEACAM5xCD40, Optimized RUBY format; copies: 2 + 2 + 2) heavy 1: not shown light: DIQMTQSPSSLSASVGDRVTITCRASQSISSYLNWYQEKPGKAPKLLIYAASSLQSGVPSRFSGSGSGTDFTLTISSLQPEDFATYYCQQSSHGPLLTFGQGTKLEIKRTVAAPSVFIFPPSDEQLKSGTASVVCYLNNFYPREAKVQWKVDNALQSGNSQESVTEQDSKDSTYSLWSTLTLSKADYEKHKVYACEVTHQGLSSPVTKSFNRGEC heavy 2: EVQLLESGGGLVQPGGSLRLSCAASGFTFSTYGMHWVREAPGKGLEWLSYISGGSSYIFYADSVKGRFTISRDNSKNTLYLQMNSLRAEDTAVYYCARILRGGSGMDLWGQGTLVTVSSASTKGPSVFPLAPSSKSTSGGTAALGCLVKDYFPEPVTVSWNSGALTSGVHTFPAVLQSSGLYSLTSVVEVPSSSLGTQTYICNVNHKPSNTKVDKKVEPKSC
